Assay [1] deals with FPRL1, seven-transmembrane G-protein coupled receptor (human) (UniProt P25090). The assay can be described thus: cell-based or functional assay.
Assay [2] addresses T1, FPRL1, seven-transmembrane G-protein coupled receptor (human, UniProt P25090 1-351).
T1 construct: whole, on cells; also called FPRH2; LXA4R
T1 sequence (looked up): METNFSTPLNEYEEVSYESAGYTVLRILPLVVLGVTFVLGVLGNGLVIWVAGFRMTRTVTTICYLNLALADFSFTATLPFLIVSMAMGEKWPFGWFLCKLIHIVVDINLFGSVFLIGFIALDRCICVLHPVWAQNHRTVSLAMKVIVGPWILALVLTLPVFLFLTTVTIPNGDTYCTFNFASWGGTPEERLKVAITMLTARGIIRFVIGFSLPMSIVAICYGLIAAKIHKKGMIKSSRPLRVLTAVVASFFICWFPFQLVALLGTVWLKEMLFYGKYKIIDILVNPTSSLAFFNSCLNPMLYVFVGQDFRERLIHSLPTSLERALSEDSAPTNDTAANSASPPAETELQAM
As to the kind of experiment: radioligand binding on FPRL1/293 cells; 16 nM 125I-SAA with increasing unlabeled SAA; LIGAND analysis; FPRL1/293 cells; saturation/LIGAND estimate, 42000 sites/cell.
Description: (§1) The data was analyzed and plotted using LIGAND software on a Macintosh computer.
(§2) After incubation, the cells were washed once with ice-cold PBS then were layered onto a 10% sucrose/PBS cushion in Eppendorf tubes. The cells were centrifuged at 10,000 g for 1 min and the tips of the tubes containing cell pellets were cut and measured for radioactivity in a y-counter.

In assay [3] the target is T1, FPRL1, seven-transmembrane G-protein …. As to the kind of experiment: Homologous displacement binding on human monocytes (native cells): constant 125I-SAA plus increasing unlabeled SAA, LIGAND/Scatchard analysis. The filing names FPRL1 as the SAA receptor on phagocytes; the receptor on monocytes is not isolated in this panel.
Description: as §1, §2
The target in assay [4] is T2, FPR, classical formyl peptide receptor (human, UniProt P21462 1-350).
T2 construct: whole, on cells; also called FPR/293 cells
T2 sequence (looked up): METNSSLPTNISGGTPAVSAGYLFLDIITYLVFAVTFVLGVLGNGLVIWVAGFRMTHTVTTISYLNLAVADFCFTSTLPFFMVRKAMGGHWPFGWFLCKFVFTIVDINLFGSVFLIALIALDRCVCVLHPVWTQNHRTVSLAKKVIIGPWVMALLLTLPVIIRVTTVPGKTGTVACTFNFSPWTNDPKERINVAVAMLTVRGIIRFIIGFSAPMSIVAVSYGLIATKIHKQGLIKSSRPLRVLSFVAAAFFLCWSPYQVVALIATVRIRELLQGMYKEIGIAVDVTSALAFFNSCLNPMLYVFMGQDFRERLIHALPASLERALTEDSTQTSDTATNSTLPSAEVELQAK
As to the kind of experiment: binding of radiolabeled SAA to receptor-transfected cells.

The target in assay [5] is T1, FPRL1, seven-transmembrane G-protein …. The assay can be described thus: displacement of 125I-SAA from FPRL1/293 cells by unlabeled SAA (the same value is told for monocytes and neutrophils); homologous displacement of 125I-SAA by unlabeled SAA; FPRL1/293 cells. A general note: Loss of bound radioactivity is the signal in a displacement assay; it reports binding, not function.
Description: as §1, §2

The molecule “N-formyl-methionyl-leucyl-phenylalanine (peptide)” yielded a Ca2+ mobilization in FPRL1 transfected cells (FPRL1/293 cells) in assay [1] of 10 µM.

B1: 125I-labeled recombinant human serum amyloid A (ligand)
chain: MRSFFSFLGEAFDGARDMWRAYSDMREANYIGSDKYFHARGNYDAAKRGPGGVWAAEAISNARENIQRFFGRGAEDSLADQAANEWGRSGKDPNHFRPAGLPEKY
modifications: radio-iodinated on tyrosine and lysine residues with the chloramine T method (125I)
notes: specific activity 5.8 mCi/mg; also called radioiodinated SAA
With B1, the dissociation constant Kd (commonly the free concentration of one partner at which half of the binding sites on the other are occupied at equilibrium, for simple one-to-one binding) in assay [2] is 64 nM; in assay [3] it was 34 nM. The binding result in assay [4] is “no binding”.

B2: Recombinant human (rh) serum amyloid A (SAA) (ligand)
chain: MRSFFSFLGEAFDGARDMWRAYSDMREANYIGSDKYFHARGNYDAAKRGPGGVWAAEAISNARENIQRFFGRGAEDSLADQAANEWGRSGKDPNHFRPAGLPEKY
notes: Bought from Pepro Tech; also called rhSAA; unlabeled SAA
As to B2, the IC50 (as a rule, the midpoint of a concentration-inhibition curve) in assay [5] was roughly 50 nM.

(Values after US20030120037A1 (published 2003).)
